Source: patent US20240390496A1 (published 2024)

Target: T1, MAGE-A3 peptide on HLA-A*02:01 (human)
T1 peptide: KVAELVHFL
Experiment: killing

B1: MAGE-A3 (112-120) TCR (MAGE-A3-112-120-Va / MAGE-A3-112-120-Vb) (TCR, V domains shown)
Valpha: GDSVTQTEGLVTLTEGLPVMLNCTYQTIYSNPFLFWYVQHLNESPRLLLKSFTDNKRTEHQGFHATLHKSSSSFHLQKSSAQLSDSALYYCAFDTNTYKVIFGKGTHLHVLP
Vbeta: DMKVTQMPRYLIKRMGENVLLECGQDMSHETMYWYRQDPGLGLQLIYISYDVDSNSEGDIPKGYRVSRKKREHFSLILDSAKTNQTSVYFCASSSTNTEVFFGKGTRLTVL
**Q.** Does B1 bind?
**A.** recognises
